Results taken from article doi:10.1101/2020.06.21.162990 (bioRxiv, 2020).

Target: the molecule itself
Experiment: SEC-MALS

B1: recombinant human ADA2 (adenosine deaminase 2), aa29-511 (enzyme, UniProt Q9NZK5 29-511, looked up)
chain: SIDETRAHLLLKEKMMRLGGRLVLNTKEELANERLMTLKIAEMKEAMRTLIFPPSMHFFQAKHLIERSQVFNILRMMPKGAALHLHDIGIVTMDWLVRNVTYRPHCHICFTPRGIMQFRFAHPTPRPSEKCSKWILLEDYRKRVQNVTEFDDSLLRNFTLVTQHPEVIYTNQNVVWSKFETIFFTISGLIHYAPVFRDYVFRSMQEFYEDNVLYMEIRARLLPVYELSGEHHDEEWSVKTYQEVAQKFVETHPEFIGIKIIYSDHRSKDVAVIAESIRMAMGLRIKFPTVVAGFDLVGHEDTGHSLHDYKEALMIPAKDGVKLPYFFHAGETDWQGTSIDRNILDALMLNTTRIGHGFALSKHPAVRTYSWKKDIPIEVCPISNQVLKLVSDLRNHPVATLMATGHPMVISSDDPAMFGAKGLSYDFYEVFMGIGGMKADLRTLKQLAMNSIKYSTLLESEKNTFMEIWKKRWDKFIADVATK
B1: binds.
